Results published in patent publication US20150104459A1 (published 2015).

B1: TCN-560 (5084_P10) (antibody, V domains shown)
VH: EVQLVESGGGLVQPGGSLRLSCAASGFIFRNYWMSWVRQAPGKGLEWVANIKQDGREKYYVDSLRGRVNISRDNAENSLYLHMNSLRVEDTAVYFCARARMVVVTGDGFDVWGHGTMVTVSS
VL: DIQMTQSPSSLSASVGDRVTITCRASQNIKRYFNWYQQKPGKAPKLLIYAASNLENGVPSRFSGSGSGTDFTLTISSLQPEDFATYYCQQSFSKSWTFGQGTNVDIK
B2: TCN-556 (5089_K12) (antibody, V domains shown)
VH: QVQLVQSGAEVKKPGASVKVSCKASGYTFIGYDMHWVRQAPGQGLEWMGWINAKRGGTNYAQKFQGRVTMTRDTSISTAYMELNSLRSDDTAVYYCARGVGSRTTIFGVLNPEFDYWGQGTLVTVSS
VL: QSALTQPPSASGSPGQSVTISCTGSSSDVGGYDYVSWYQQHPGKAPKLLIYEVTKRPSGVPDRFSGSKSGNTASLTVSGLQAEDEADYYCSSYAGNYNHVFGPGTKVTVL
B3: TCN-545 (5082_I15) (antibody, V domains shown)
VH: QVQLQQWGAGLLKPSETLSLSCAVFGGSFSDYYWTWIRQPPGKGLEWIGEIKHSGRTNYNPSLESRVTISVDTSKNQFSLKLSSVTAADTAIYYCARGTDPDTEGYCRSGSCSAFDFWGQGTLVTVSS
VL: EIVLTQSPGTLSLSPGERATLSCRASHFVNYRSLAWYQQTPGQVPRLLIYGASTRATGIPDRFSGSGSGTDFTLTISRLEPEDFAVYFCQQYGGSPRYTFGQGTRLEIK
B4: TCN-538 (3206_O17) (antibody, V domains shown)
VH: QITLKESGPTLVKPTQTLTLTCVFSGFSLSITGVRVGWIRQPPGKALEWLALISWDDEKHYSPSLQSRLTITKDTSKNQVVLTMTNLDPVDTATYYCARSTDRGHVLRYFGWMLPGDAFDVWGQGTMVTVSS
VL: DIVMTQSPDFLPVSLGERATINCKSSQRVLYSSNNKNYLAWYQLKPGQPPKLIIYWASTRESGVPDRFSGSGSGTEFTLTISSLQAEDVAVYYCQQYYSRPYTFGQGTKLEIK
B5: TCN-546 (5089_L08) (antibody, V domains shown)
VH: QVQLQQWGAGLLKPSETLSLTCGVYGGSLSDYYWSWIRQPPGKGLEWIGEINHSGGTNYNPSLKRRVTISVDTSKKQFSLKMNSVTAADTAVYYCARGTDPDTEVYCRAGNCAAFDFWGQGTLVTVSS
VL: EIVLTQSPGTLSLSPGERATLSCRASHFVIGRAVAWYQQKPGQAPRLLIYGASSRATGIPDRFSGSGSGTDFTLTISRLETEDFAVFYCQHYGSSPRYAFGQGTKLEIK
B6: TCN-537 (3194_D21) (antibody, V domains shown)
VH: QVQLQQWGSGLLKPSETLSLTCAVYGGSFRDDYWTWIRQPPGKGLEWIGEINHSGRTNYNPSLKSRVTISVDTSLKQFSLKVISVTAADTAVYYCARGTSHVSRYFDWLPPTNWFDPWGQGTQVTVSS
VL: DIVLTQSPGTLSLSPGERATLSCRASQSVSSSYLAWYQQKPGQAPRLVMYGAATRATGIPDRFSGSGSGPDFTLTISRLEPEDFAMYYCQQYGNSPITFGQGTRLEIK
B7: TCN-555 (5246_L16) (antibody, V domains shown)
VH: QVQLVQSGAEVKRPGSSVKVSCTASGGIFRKNAISWVRQAPGQGLEWMGGIIAVFNTANYAQKFQNRVKITADESGNTAYMELSSLTSDDTAVYYCASHPKYFYGSGSYPDFWGQGTLVTVSS
VL: QSALTQPRSVSGSPGQSITISCTGGSSDIGASNSVSWYQQHPGKAPKLVIFDVTERPSGVPHRFSGSKSGNTASLTVSGLQPDDEADYFCCAYGGKYLVVFGGGTKVTVL
B8: TCN-542 (5079_A16) (antibody, V domains shown)
VH: QVQLQESGPGLVKPSQTLSLTCTVSGGSISSGNYYWNWVRQHPGKGLEWIGYIYYRGSTFYNPSLKSRVTISIDTSKNQFSLRLSSVTAADTAVYYCAKDTRSSLDNYQYGMDVWGQGTTVTVSS
VL: QTVVTQEPSLTVSPGGTVTLTCASSTGAVTSSYFPNWFQQKPGQAPRPLIYSTTIRHSWTPARFSGSLLGGKAALTLSGVQPEDEADYYCLLYSGGDPVAFGGGTKLTVL
B9: TCN-553 (5261_C18) (antibody, V domains shown)
VH: QVQVVQSGTEVKKPGSSVKVSCQTSGGRFMSYAITWVRQAPGQGLEWMGGIVPVFGTANYAQKFQGRVTITTDDSTRTAYMELSSLRSEDTAVYYCGFRYGSGYGFDSWGQGTLVTVSS
VL: EIVLTQSPGTLSLSPGERATLSCRASQSVSSSYLAWYQKKPGQAPRLLIYGASTRATGIPDRFTGSGSGTDFTLSISRLEPEDFAVYYCQHFGTSVFTFGGGTKVEIK
B10: TCN-552 (5249_I23) (antibody, V domains shown)
VH: QVQVVQSGAEVKKPGSSVRVSCQASGGTFMNYAIIWVRRAPGQGLEWMGGIIPVFPTPNYAQMFQGRVTISTDESRSTSFLELTNLRYEDTAVYYCARRIYHGGNSGFDFWGQGTLVTVSS
VL: EIVLTQSPATLSLSPGERATLSCRASQSVGNYLAWYQQKPGQAPRLLIYDSSNRAPGIPARFSGSGSGTDFTLTISSLAPEDFAVYYCQQRSKWPPMYSFGHGTKLEIK
B11: TCN-543 (5081_G23) (antibody, V domains shown)
VH: QVHLVQSGAEVRKPGDSVKVSCKTSGYTFSTYPVAWVRQVPGQGLEWMGWISTYNGNTNFAQNFQGRVTLTTDTTTNTAYMEVRSLKFDDTAVYYCARVEGSYRDFWNNQNRFDPWGQGTLVTVSS
VL: SYVLTQPPSVSVAPGQTARISCGGSNIGGKSVHWYQQKPGQAPVLVVYDDSGRPSGIPERFSGSNSGDTATLTISRVEAGDEADYFCQVWDNFGGVFGTGTKVTVL
B12: TCN-558 (5248_H10b) (antibody, V domains shown)
VH: QVQLVQSGSEVKKPGTSVKVSCTASGSVFTNYGISWVRQAPGQGLEWMGGIIPLFGAAKYAQKFQGRVTITADESTKTVYMELSRLTSKDTAIYFCAKAPRVYEYYFDQWGQGTPVTVSS
VL: EIVMTQFPATLSVSPGERVTLSCRASQSVSNNLAWYQQKPGQPPRLLIYDASTRATGVPAKFSGTGSGTEFTLSISSLQSEDFAVYYCQQYHNWPPSYSFGLGTKLEIK
B13: TCN-551 (5243_D01) (antibody, V domains shown)
VH: EVQLVQSGSEVKKPGESLKISCKGSGYSFSNYWIGWVRHMPGKGLEWMGIIYPGDSDTRYSPSFQGQVTMSADKSSSTVYLQWSSLKASDTAIYYCARRGGHSFGYGSGGDTHSEFDSWGQGTLVTVSS
VL: QSVLTQSPSVSAAPGQKVTISCSGSDSNIGDYFVCWYQHLPGKPPQLLIYENNKRPSGIPDRFSGSKSGTSATLGITGIQTGDEADYYCATWDGSLSAWVFGGGTKLTVL
B14: TCN-540 (5060_F05) (antibody, V domains shown)
VH: QVQLVQSGGGVVQPGRSLRLSCAASGFTFSSYAMHWVRQAPGKGLEWVAIISYDGNDQYYTDSVKGRFTISRDSSKVYLQMHRLRPEDTAVYYCAKEFETSGYFHGSFDYWGQGILVTVSS
VL: QSALTQPASVSGSPGQSITISCTGTSSDVGGYNYVSWYQQHPGKAPKLLIYEVTNWPSGVSNRFSGSKSGNTASLTISGLQAEDEADYYCSSYAGSSTWVFGGGTRVTVL
B15: TCN-560 (5084_P10) (antibody, V domains shown)
VH: B1 VH
VL: B1 VL
B16: TCN-556 (5089_K12) (antibody, V domains shown)
VH: B2 VH
VL: B2 VL

Molecular target: recombinant soluble homotrimeric HA of A/duck/Yangzhou/02/2005 (H8N4) (Influenza A virus …)
Assay: HA microarray, BCC supernatant

Going from B1 to B2, the “Trimeric HA Binding RLU” value falls from 44700 RLU to 16900 RLU.

Molecular target: recombinant soluble homotrimeric HA of A/northern shoveler/California/HKWF115/2007 (H6N1) (Influenza A virus A/northern …)
Assay: HA microarray, BCC supernatant

First: B1
Second: B2
The “Trimeric HA Binding RLU” value of the first is higher: 42300 RLU for the first, 11900 RLU for the second.

Molecular target: hemagglutinin (HA) of live influenza A/Wisconsin/67/05 (H3N2) virus (influenza A virus A/Wisconsin/67/2005 …)
Assay: cell-based or functional assay

First: B3
Second: B4
The “% Neutralization” value of the first is higher: 99% for the first, 0% for the second.

Going from B5 to B6, the “% Neutralization” value falls from 100% to 0%.

First: B7
Second: B8
The “% Neutralization” value of the first is lower: 5% for the first, 8% for the second.

First: B9
Second: B10
The “% Neutralization” value of the first is lower: 5% for the first, 14% for the second.

First: B11
Second: B12
The “% Neutralization” value of the first is higher: 73% for the first, 7% for the second.

Compared with B13, B14 is higher in “% Neutralization” value: 6% for the first, 98% for the second.

Molecular target: hemagglutinin (HA) of live influenza A/Solomon Islands/3/06 (H1N1) virus (influenza A virus A/Solomon …)
Assay: cell-based or functional assay

Compared with B3, B4 is lower in “% Neutralization” value: 88% for the first, 21% for the second.

First: B5
Second: B6
The “% Neutralization” value of the first is higher: 98% for the first, 0% for the second.

Going from B7 to B8, the “% Neutralization” value rises from 49% to 99%.

Compared with B9, B10 is lower in “% Neutralization” value: 44% for the first, 0% for the second.

First: B11
Second: B12
The “% Neutralization” value of the first is higher: 98% for the first, 84% for the second.

First: B13
Second: B14
The “% Neutralization” value of the first is higher: 99% for the first, 3% for the second.

Molecular target: hemagglutinin (HA) of live influenza A/California/4/09 (H1N1) virus (influenza A virus A/California/04/2009 …)
Assay: cell-based or functional assay

First: B5
Second: B8
The “% Neutralization” value of the first is lower: 0% for the first, 15% for the second.

Molecular target: recombinant soluble homotrimeric HA, A/duck/Yangzhou/02/2005 (H8N4) (influenza A virus …)
Assay: microarray, trimeric HA, transfection supernatant

Going from B15 to B16, the “Trimeric HA Binding RLU” value falls from 27900 RLU to 22400 RLU.

Molecular target: recombinant soluble homotrimeric HA, A/chicken/Vietnam/NCVD-016/08 (H5N1) (influenza A virus …)
Assay: microarray, trimeric HA, transfection supernatant

Compared with B15, B16 is higher in “Trimeric HA Binding RLU” value: 18200 RLU for the first, 22700 RLU for the second.

Molecular target: recombinant soluble homotrimeric HA, A/Netherlands/219/03 (H7N7) (influenza A virus A/Netherlands/219/03 …)
Assay: microarray, trimeric HA, transfection supernatant

Going from B15 to B16, the “Trimeric HA Binding RLU” value rises from 32100 RLU to 43600 RLU.

Molecular target: recombinant soluble homotrimeric HA, A/Anhui/1/05 (H5N1) (influenza A virus A/Anhui/1/2005 (H5N1))
Assay: microarray, trimeric HA, transfection supernatant

Compared with B15, B16 is lower in “Trimeric HA Binding RLU” value: 18600 RLU for the first, 13800 RLU for the second.

Molecular target: recombinant soluble homotrimeric HA, A/northern shoveler/California/HKWF115/2007 (H6N1) (influenza A virus A/northern …)
Assay: microarray, trimeric HA, transfection supernatant

Compared with B15, B16 is lower in “Trimeric HA Binding RLU” value: 35900 RLU for the first, 34800 RLU for the second.

Molecular target: recombinant soluble homotrimeric HA, A/Hong Kong/156/97 (H5N1) (influenza A virus A/Hong Kong/156/97 …)
Assay: microarray, trimeric HA, transfection supernatant

First: B15
Second: B16
The “Trimeric HA Binding RLU” value of the first is higher: 29300 RLU for the first, 24600 RLU for the second.
